The text below walks through data of patent publication US20210380710A1.

Test [1] has as its target human CD20 on the cell surface (Raji, Ramos, Namalwa cells) (human) (UniProt P11836). Nature of the test: cell-based or functional assay.
For test [2] the target is unchanged. Briefly: FACS affinity on Ramos cells, FITC bead quantitation.
Test [3] deals with human CD3 on the cell surface (Jurkat cells) (human) (UniProt P07766). Briefly: flow cytometry on Jurkat cells.
For test [4] the target is unchanged. Nature of the test: FACS affinity on Jurkat cells, FITC bead quantitation. On the set-up: Bmax: unit not given here.
Test [5] has as its target human CD20 on the cell surface (Raji, Ramos, Namalwa cells) (human) (UniProt P11836). Briefly: flow cytometry on Raji cells.
The target in test [6] is human CD3 on the cell surface (Jurkat cells) (human) (UniProt P07766). Nature of the test: flow cytometry on Jurkat cells, antibody 10 ug/ml. (A flow cytometer gives signals particle by particle.)
Test [7] shares this target. Nature of the test: flow cytometry on Hut78 cells (target on Hut78 not given), antibody 10 ug/ml.
For test [8], the target named is human CD20 on the cell surface (Raji, Ramos, Namalwa cells) (human) (UniProt P11836). Nature of the test: flow cytometry on Ramos cells, antibody 10 ug/ml.
For test [9], the target named is PD-1.his (Homo sapiens (Human)) (UniProt Q15116). Nature of the test: ELISA, antigen coated at 2 ug/mL, antibody 10 ug/ml; * specific binding. (In an ELISA, binding on a coated surface is turned into a signal by an enzyme label.)
Test [10] concerns the target human CD20 on the cell surface (Raji, Ramos, Namalwa cells) (human) (UniProt P11836). Briefly: flow cytometry on Raji cells, antibody 10 ug/ml.
Test [11] has the same target. Briefly: flow cytometry on Raji cells, secondary antibody alone.
Test [12] shares this target. Nature of the test: flow cytometry on Ramos cells, secondary antibody alone.
Test [13] deals with human CD3 on the cell surface (Jurkat cells) (human) (UniProt P07766). Briefly: flow cytometry on Jurkat cells, secondary antibody alone.
Test [14] shares this target. Nature of the test: flow cytometry on Hut78 cells (target on Hut78 not given), secondary antibody alone.

pEC50, pKd: −log10 of the molar value.

UniProt P11836, sequence (P11836 whole entry): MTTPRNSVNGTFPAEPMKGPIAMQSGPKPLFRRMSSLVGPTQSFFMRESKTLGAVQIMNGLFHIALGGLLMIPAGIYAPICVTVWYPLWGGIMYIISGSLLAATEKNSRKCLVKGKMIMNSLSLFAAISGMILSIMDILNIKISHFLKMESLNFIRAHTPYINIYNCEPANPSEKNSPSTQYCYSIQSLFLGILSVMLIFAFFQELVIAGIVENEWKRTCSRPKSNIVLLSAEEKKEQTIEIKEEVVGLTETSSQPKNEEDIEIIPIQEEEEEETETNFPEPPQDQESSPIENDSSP
UniProt P07766, sequence (P07766 23-207, chain 1 of 3): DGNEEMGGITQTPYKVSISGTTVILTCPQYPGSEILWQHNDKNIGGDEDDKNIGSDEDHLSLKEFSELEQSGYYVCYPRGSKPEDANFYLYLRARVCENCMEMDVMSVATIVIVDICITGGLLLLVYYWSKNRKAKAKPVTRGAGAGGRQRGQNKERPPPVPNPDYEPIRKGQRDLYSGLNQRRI
UniProt P07766, sequence (P04234 22-171, chain 2 of 3, further chain): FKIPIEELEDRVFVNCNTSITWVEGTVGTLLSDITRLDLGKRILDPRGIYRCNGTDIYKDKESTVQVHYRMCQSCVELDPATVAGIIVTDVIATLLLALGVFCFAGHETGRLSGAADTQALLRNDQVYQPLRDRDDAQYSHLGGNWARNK
UniProt P07766, sequence (P09693 23-182, chain 3 of 3, further chain): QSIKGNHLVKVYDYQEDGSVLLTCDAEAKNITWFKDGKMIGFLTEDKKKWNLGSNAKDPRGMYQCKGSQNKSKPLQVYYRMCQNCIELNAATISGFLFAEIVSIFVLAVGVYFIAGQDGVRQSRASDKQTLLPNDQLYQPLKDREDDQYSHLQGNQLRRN
UniProt Q15116, sequence (Q15116 25-170 limits assumed): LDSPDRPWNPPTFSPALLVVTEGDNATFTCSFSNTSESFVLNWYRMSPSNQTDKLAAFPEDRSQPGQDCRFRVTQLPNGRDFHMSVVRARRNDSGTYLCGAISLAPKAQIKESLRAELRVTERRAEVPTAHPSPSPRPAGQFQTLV

As for BMK4 (REGN1979) (bispecific antibody), in [1], the EC50 of T cell activation (CD25 expression), CD4+ cells, in the presence of Raji cells amounted to 6 pM; the EC50 of T cell activation (CD25 expression), CD8+ cells, in the presence of Raji cells came out at 18.3 pM; the EC50 of bispecific antibody mediated cytotoxicity, NAMALWA, 4 hours FACS based cytotoxicity assay with CD8+ T cells worked out at 31.8 pM; the EC50 of bispecific antibody mediated cytotoxicity, NAMALWA, two hour calcein release assay with CD8+ T cells is 26 pM. Moreover, in [1], the EC50 of bispecific antibody mediated cytotoxicity, Raji, 4 hours FACS based cytotoxicity assay with CD8+ T cells turned out to be 3.12 pM; the EC50 of bispecific antibody mediated cytotoxicity, Raji, two hour calcein release assay with CD8+ T cells was 2.69 pM; the EC50 of bispecific antibody mediated cytotoxicity, Ramos, two hour calcein release assay with CD8+ T cells was 1.49 pM. For the same substance, in test [2], the Bmax is 6.8e-10 and the pKd (commonly −log10 of the Kd, conventionally taken in molar units) was 7.17. Also, in [3], the pEC50 (as a rule, −log10 of the EC50, conventionally taken in molar units) is 8.06. In test [4], this substance gave a Bmax of 1.1e-10 and a pKd of 7.52. In test [5], the pEC50 was 7.39.
Turning to Human IgG4K control (antibody), the FACS MFI was 25 in [6], 61 in test [7], 68 in test [8] and 92 in test [10]. In test [9], this substance came in with an absorbance at 450 nm of 3.87.
With Human IgG4L control (antibody), the values for the FACS MFI in test [6], in test [7] and in test [8] were 22, 38 and 63, respectively.
Take “goat anti-human IgG Fc-PE (Jackson, 109-115-098) (antibody)”: the FACS MFI in test [11] was determined as 67; in test [12], 65; in [13], 21; in test [14], 28.
